Measurements reported in patent publication US20240116985A1 (published 2024).
Starred links: 1 amine or outer side, 2 acyl side, 3 side chain; linkers in the order of their positions; H or OH if unused. Positions of bridges follow the written chain, without caps; N, C: chain ends. Non-standard residues stand in square brackets, D forms with d. Primed or numbered codes have the meaning given here. PyrS2(3) = (S)-3-amino-1-((pent-4-en-1-yloxy)carbonyl)pyrrolidine-3-carboxylic acid, stapling residue, C=CCCCOC(=O)N1CC[C@@](N[*:1])(C(=O)[*:2])C1; B5(16) = 2-amino-2-(pent-4-en-1-yl)hept-6-enoic acid = 2,2-bis(4-pentenyl)glycine (stitching residue), C=CCCCC(CCCC=C)(N[*:1])C(=O)[*:2]; B5(4) = 2,2-bis(4-pentenyl)glycine = 2-amino-2-(pent-4-en-1-yl)hept-6-enoic acid (stitching residue), C=CCCCC(CCCC=C)(N[*:1])C(=O)[*:2]; Phe(3-COOH) = N[C@@H](Cc1cccc(C(=O)O)c1)C(=O)O; Phe(2-Cl) = N[C@@H](Cc1ccccc1Cl)C(=O)O; Bta = N[C@@H](Cc1csc2ccccc12)C(=O)O; αAllylPro = C=CC[C@@]1(C(=O)O)CCCN1; tBuAla = CC(C)(C)C[C@H](N)C(=O)O; 3Thi = N[C@@H](Cc1ccsc1)C(=O)O; S8 = C=CCCCCCC[C@](C)(N)C(=O)O; R5 = C=CCCC[C@@](C)(N)C(=O)O; PyrS2(4) = not defined here

What was measured:
[1] = target: T1, B-cat-Halo (beta-catenin HaloTag construct transfected into HEK293 cells) (UniProt P35222 1-781); test: cell-based or functional assay
T1 sequence (looked up): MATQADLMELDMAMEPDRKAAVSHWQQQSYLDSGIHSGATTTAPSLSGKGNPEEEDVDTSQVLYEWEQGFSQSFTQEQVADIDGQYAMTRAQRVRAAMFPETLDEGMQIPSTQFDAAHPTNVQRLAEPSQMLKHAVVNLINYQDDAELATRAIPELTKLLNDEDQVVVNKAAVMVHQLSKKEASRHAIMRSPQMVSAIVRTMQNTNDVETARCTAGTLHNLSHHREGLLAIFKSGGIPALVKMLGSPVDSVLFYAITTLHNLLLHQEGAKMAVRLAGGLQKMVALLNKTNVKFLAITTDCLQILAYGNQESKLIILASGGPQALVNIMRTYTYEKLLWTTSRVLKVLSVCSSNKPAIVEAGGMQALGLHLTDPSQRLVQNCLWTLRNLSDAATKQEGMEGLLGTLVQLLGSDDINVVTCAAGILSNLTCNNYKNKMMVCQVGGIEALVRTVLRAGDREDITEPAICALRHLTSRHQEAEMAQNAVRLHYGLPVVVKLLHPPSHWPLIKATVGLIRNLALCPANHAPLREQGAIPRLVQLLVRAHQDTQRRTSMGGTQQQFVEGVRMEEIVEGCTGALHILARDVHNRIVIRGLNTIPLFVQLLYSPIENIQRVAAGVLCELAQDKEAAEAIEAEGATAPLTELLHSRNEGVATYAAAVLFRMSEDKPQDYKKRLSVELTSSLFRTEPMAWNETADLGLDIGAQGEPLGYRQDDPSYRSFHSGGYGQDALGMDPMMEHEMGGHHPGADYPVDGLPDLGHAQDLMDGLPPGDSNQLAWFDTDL

[2] = target: T2, beta-catenin in DLD1 TCF/LEF luciferase reporter cells (UniProt P35222 1-781); test: cell-based or functional assay
T2 sequence (looked up): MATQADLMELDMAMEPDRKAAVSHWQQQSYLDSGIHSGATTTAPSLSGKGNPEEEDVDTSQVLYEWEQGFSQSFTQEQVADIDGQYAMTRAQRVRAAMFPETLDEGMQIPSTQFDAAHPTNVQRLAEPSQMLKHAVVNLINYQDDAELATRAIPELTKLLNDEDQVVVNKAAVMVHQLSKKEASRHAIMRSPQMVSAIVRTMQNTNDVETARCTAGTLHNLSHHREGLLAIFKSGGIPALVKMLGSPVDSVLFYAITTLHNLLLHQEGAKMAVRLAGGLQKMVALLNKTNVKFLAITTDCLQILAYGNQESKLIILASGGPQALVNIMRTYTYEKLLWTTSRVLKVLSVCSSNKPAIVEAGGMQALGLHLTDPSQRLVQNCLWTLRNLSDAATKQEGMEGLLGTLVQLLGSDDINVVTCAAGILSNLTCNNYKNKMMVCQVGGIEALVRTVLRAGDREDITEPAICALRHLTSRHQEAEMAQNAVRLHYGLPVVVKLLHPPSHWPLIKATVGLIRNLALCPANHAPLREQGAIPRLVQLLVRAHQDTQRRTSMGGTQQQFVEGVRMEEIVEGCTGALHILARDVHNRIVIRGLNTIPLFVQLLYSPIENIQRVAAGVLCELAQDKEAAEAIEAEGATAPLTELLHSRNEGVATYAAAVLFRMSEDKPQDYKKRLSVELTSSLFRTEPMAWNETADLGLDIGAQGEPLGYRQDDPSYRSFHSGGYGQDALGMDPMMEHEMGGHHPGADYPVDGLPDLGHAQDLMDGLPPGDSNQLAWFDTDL

Bcat-Halo = target: T3, Bcat-Halo (UniProt P35222 1-781); test: NanoBRET Abs IC50 in HEK293 cells; Bcat-Halo, competitor TCF4-Luc
T3 construct: also called beta-catenin HaloTag fusion; not shown: HaloTag
T3 sequence (looked up): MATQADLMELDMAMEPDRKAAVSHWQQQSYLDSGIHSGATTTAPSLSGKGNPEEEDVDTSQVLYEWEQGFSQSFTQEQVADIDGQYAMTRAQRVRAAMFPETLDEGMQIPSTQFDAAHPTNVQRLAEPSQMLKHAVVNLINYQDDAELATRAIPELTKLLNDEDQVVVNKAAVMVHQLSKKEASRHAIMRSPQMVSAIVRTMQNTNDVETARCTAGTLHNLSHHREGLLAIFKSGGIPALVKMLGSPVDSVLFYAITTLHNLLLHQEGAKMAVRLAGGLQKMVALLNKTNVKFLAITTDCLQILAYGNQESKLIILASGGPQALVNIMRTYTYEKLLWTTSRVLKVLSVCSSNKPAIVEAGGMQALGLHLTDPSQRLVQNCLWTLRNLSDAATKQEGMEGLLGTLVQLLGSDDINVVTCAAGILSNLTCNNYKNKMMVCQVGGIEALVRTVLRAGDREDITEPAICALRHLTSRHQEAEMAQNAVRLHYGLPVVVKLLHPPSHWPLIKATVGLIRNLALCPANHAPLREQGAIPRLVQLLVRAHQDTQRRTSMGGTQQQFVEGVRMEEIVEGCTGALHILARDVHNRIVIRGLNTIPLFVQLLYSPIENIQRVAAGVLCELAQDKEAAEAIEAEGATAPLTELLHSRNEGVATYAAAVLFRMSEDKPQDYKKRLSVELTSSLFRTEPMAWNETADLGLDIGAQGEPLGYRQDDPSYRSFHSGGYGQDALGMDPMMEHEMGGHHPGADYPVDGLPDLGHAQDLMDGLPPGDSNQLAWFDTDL

[3] = target: T4, full-length beta-Catenin (Uniprot ID P35222) (Homo sapiens (Human), UniProt P35222 1-781); test: fluorescence polarization competition; full-length beta-catenin, competitor 5FAM-TCF4(10-53) probe
T4 construct: also called bCat; B-Catenin
T4 sequence: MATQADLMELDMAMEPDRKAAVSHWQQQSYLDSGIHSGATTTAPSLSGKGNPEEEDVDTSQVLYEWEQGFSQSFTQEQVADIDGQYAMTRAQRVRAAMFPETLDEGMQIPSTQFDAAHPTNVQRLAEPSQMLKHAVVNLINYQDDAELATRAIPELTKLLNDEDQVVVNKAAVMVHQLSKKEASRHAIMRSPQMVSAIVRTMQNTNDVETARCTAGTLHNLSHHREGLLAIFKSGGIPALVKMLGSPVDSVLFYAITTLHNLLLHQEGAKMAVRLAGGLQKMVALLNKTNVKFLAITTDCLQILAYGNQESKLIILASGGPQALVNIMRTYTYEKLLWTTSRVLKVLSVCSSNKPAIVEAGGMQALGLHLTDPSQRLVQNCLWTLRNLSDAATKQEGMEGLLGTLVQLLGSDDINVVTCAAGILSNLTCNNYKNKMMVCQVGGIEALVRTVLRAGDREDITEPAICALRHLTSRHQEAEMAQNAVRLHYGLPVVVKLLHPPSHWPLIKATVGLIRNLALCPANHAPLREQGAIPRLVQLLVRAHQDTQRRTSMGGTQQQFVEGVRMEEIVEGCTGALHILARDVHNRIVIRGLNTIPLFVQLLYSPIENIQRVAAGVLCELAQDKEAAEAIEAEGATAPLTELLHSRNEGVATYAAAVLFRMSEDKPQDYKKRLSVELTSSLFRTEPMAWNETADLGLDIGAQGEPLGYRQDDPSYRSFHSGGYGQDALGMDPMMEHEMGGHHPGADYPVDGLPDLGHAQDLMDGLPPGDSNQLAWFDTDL
Summary of the method: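 Readings followed a light-protected 60-minute incubation at 20° C. Each read was done in duplicate. Curves were fit with a 1:1 binding model including hill slope, and stated concentrations are final.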

[4] = target: T5, full-length beta-Catenin (Uniprot ID P35222) (Homo sapiens (Human), UniProt P35222 2-781); test: fluorescence polarization competition, displacement of 5FAM-TCF4 10-53 from full-length beta-catenin
T5 construct: also called bCat; B-Catenin
T5 sequence: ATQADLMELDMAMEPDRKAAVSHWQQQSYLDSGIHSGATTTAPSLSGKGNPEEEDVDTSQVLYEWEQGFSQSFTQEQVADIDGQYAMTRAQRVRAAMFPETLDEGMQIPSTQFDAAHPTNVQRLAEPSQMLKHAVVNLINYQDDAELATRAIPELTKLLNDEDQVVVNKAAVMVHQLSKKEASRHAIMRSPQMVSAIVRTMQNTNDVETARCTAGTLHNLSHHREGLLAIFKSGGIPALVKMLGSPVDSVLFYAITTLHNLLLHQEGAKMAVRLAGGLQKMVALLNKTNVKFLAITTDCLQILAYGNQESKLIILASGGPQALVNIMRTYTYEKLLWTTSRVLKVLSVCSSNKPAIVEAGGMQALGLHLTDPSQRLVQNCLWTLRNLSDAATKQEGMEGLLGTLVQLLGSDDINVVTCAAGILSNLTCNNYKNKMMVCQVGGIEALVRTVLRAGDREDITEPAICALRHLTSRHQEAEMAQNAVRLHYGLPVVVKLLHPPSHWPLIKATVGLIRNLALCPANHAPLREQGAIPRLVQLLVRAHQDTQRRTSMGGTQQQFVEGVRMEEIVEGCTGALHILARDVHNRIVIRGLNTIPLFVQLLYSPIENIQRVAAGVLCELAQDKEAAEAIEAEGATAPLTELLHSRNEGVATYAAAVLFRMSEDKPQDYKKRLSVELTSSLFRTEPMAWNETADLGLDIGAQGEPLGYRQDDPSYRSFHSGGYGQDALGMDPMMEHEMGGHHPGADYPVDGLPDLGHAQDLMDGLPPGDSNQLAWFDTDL
Method: The plate was incubated protected from light for 60 minutes at 20° C. prior to read. Reads were performed on a CLARIOstar plate reader (BMG Labtech) in duplicate, and data were fitted to a 1:1 binding model with hill slope using an in-house script. All provided concentrations are final concentrations.

B1: I-1918 (peptide)
peptide: Ac-[αAllylPro]D[tBuAla][B5(4)]D[Phe(3-COOH)]QAFL[PyrS2(4)][3Thi][Bta]A-NH2
modifications: staple 1-4, 4-11; not fully specified; printed as Ac-PL3-Asp-Npg-B5-Asp-3COOHF-Gln-Ala-Phe-Leu-PyrS2-3Thi-BztA-Ala-NH2; reading uncertain
[1]
  NanoBRET Abs IC50: 4 µM
[2]
  DLD1 4% Abs IC50: 6.5 µM

## Ac-[αAllylPro]DI[B5(16)]DEQAFQ[S8]F[Bta]Q-NH2 (staple 1-4, 4-11, Stapled peptide) [I-654]
Bcat-Halo
  IC50: 15 µM

B2: I-662 (peptide)
peptide: XDIXDEASFQXFXQ
modifications: not fully specified; Ac-PL3-Asp-Ile-B5-Asp-Glu-Ala-Ser-Phe-Gln-S8-Phe-BztA-Gln-NH2; N-terminal acetyl, C-terminal amide; PL3(1), B5(4), S8(11) stapled by olefin metathesis (1-4 and 4-11); BztA at 13
notes: Stapled peptide
Bcat-Halo
  IC50: 16.1 µM
[3]
  IC50: 0.026 µM

B3: I-1183 (peptide)
peptide: Ac-PD[tBuAla][R5]DDAAFN[PyrS2(3)][Phe(2-Cl)][Bta]Q-NH2
modifications: staple 4-11
notes: Stapled peptide, one staple. '2C1F' as printed (2ClF)
[4]
  IC50: 0.409 µM
